In PMC9168836, “Clamping of DNA shuts the condensin neck gate” (Proceedings of the National Academy of Sciences of the …, 2021):

T1: Smc4-3xStrepII (budding yeast (S. cerevisiae), UniProt Q12267 1-1418)
T1 construct: Smc4, SMC subunit of budding yeast (S. cerevisiae) condensin; only the head domain, proximal coiled coil and residues 126-144 are resolved in the maps; The tag's end is read from the plasmid's name SMC4-3xStrepII; also called Scm4
T1 sequence: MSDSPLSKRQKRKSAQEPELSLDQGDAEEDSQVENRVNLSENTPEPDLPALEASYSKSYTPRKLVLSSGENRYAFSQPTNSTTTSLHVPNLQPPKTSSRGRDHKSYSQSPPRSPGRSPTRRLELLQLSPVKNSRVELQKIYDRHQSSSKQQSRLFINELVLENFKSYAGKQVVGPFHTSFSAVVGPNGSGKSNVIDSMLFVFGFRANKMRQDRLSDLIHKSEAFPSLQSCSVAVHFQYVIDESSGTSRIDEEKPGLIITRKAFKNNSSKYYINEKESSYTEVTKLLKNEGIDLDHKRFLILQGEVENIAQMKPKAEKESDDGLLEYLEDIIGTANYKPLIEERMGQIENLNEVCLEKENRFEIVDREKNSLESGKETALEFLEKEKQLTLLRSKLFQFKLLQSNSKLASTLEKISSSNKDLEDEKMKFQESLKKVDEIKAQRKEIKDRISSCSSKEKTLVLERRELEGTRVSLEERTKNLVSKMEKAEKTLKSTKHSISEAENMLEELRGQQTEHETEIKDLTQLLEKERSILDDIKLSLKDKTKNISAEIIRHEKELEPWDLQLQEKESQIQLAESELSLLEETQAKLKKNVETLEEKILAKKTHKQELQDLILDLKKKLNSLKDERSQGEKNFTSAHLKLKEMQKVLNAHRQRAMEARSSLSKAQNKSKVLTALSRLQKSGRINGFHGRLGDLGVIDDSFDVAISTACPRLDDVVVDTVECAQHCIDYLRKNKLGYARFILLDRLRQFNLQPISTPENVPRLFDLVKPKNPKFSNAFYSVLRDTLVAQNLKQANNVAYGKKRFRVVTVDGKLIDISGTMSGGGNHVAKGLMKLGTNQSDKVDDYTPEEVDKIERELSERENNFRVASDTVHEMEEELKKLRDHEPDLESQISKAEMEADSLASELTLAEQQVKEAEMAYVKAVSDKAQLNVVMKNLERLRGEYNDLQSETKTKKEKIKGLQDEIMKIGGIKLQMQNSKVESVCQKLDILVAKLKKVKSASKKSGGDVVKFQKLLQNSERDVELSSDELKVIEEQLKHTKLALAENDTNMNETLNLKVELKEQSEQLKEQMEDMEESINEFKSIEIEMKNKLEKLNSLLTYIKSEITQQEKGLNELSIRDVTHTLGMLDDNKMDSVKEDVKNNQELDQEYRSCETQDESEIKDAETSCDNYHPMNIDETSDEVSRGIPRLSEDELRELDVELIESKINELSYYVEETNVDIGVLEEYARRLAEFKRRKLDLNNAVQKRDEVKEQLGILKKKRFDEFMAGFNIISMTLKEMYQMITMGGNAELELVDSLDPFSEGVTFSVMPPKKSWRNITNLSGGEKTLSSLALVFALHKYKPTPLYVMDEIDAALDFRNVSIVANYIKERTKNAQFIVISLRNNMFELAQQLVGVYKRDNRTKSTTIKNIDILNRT

B1: Ycs4 (natural protein, S. cerevisiae)
chain: MSGFSLSEYLTKFQTTDRESYPRLQDPSRELNVIIDQLAVSPEQIDASPDSLEALIDLCHDFPHLTPKLQTQLSYLISSSLSNLSKDIKANLSSNVNFTEIGGLIPQWKRHLEEYGYLIQVLLTFLQDELHKVSSQSTNLNRSAKNSKNDSANVELFKRDCNQMENLLESITKLLEINLSKIFQTTPEKDLFIGLFTRPLFVLLEIEPVTKVSSLKMFIQRILAMCVKNHGQSSSIQSSLMTNLTYFLHLSVFNAELLKLLNDEYNYPQLTEDILKEISTRVFNAKDTTGPKAISNFLIKLSELSPGIMLRQMNLVITLLNNSSITLRCSVVEACGNIVAELAQDPQTMEHYKQQIAVLIELLEERFQDSNPYVRTKAIQGCSKICDLSSKFNKSKAKFTSLAVRSLQDRSSLVRRNSVKLLSKLLLKHPFKAIHGSQLRLSEWEEYLKGSESQLNSTLKKVESQETLNDTIERSLIEEEVEQDEGQCRTELEGSFNKSAELSRIENEVENINATNTSVLMKLKLMIVYYKDAISFIKEIHKSIELISNLLFSKNRNEVLESMDFLVLADAFDIELSEFGIKKMLHLVWMKGTNDEGTSISVHLIECYKQLFLTAPDSCNMQEKAAHIAKNLINLSIGASIADLASLEQLLGMMYEQKLIDQHVINILWAIYNSASKASMQKEQNVNNRDSEKGFSKEQIHGSIIILGMLSLADNEIALKGLESLLNIGLGAVGLKDLTLCRYSCLALERMVPKRSTIITKAINQELEDVAVKKLYAIIINYTKDNEYYPMCEQALSALFTISSKPDILATDLIREKTMMTFGKPEEEDSILSLEQSSRVVSLSQLLFIVGQVAIKTLVYLEKCEAEFKKRKIEAETRNGKVKNQGADVTNTTQDNGGDKELEMIGGTNEDDFTDAIQFVKENELLFGEKSILGKFCPIVEEIVSNSSRFSDPMLQRTATLCLEKLMCLSSKYCEKSLPLLITVMEKSPDPTIRSNAVLGLGDMAVCFNNLVDENTDYLYRRLHDENLMVQRTCLMTVTFLILAGQVKVKGQLGEMAKCLDNPDQGISDMCRLFFTELASKDNAIYNGFIDIFSNLSSDDLLGKESFKKIIKFLLTFIDKERHQKQLNEKLVGRLRKCETQKQWDDIAFVLNNLPYKNEDVTALLEQGFKVVSAKE
notes: Ycs4, HAWK (HEAT repeat) subunit of S. cerevisiae condensin
B2: Smc2 (natural protein, budding yeast (S. cerevisiae))
chain: MKVEELIIDGFKSYATRTVITDWDPQFNAITGLNGSGKSNILDAICFVLGIASMSTVRASSLQDLIYKRGQAGVTKASVTIVFDNTDKSNSPIGFTNSPQISVTRQVVLGGTSKYLINGHRAPQQSVLQLFQSVQLNINNPNFLIMQGKITKVLNMKPSEILSLIEEAAGTKMFEDRREKAERTMSKKETKLQENRTLLTEEIEPKLEKLRNEKRMFLEFQSTQTDLEKTERIVVSYEYYNIKHKHTSIRETLENGETRMKMLNEFVKKTSEEIDSLNEDVEEIKLQKEKELHKEGTISKLENKENGLLNEISRLKTSLSIKVENLNDTTEKSKALESEIASSSAKLIEKKSAYANTEKDYKMVQEQLSKQRDLYKRKEELVSTLTTGISSTGAADGGYNAQLAKAKTELNEVSLAIKKSSMKMELLKKELLTIEPKLKEATKDNELNVKHVKQCQETCDKLRARLVEYGFDPSRIKDLKQREDKLKSHYYQTCKNSEYLKRRVTNLEFNYTKPYPNFEASFVHGVVGQLFQIDNDNIRYATALQTCAGGRLFNVVVQDSQTATQLLERGRLRKRVTIIPLDKIYTRPISSQVLDLAKKIAPGKVELAINLIRFDESITKAMEFIFGNSLICEDPETAKKITFHPKIRARSITLQGDVYDPEGTLSGGSRNTSESLLVDIQKYNQIQKQIETIQADLNHVTEELQTQYATSQKTKTIQSDLNLSLHKLDLAKRNLDANPSSQIIARNEEILRDIGECENEIKTKQMSLKKCQEEVSTIEKDMKEYDSDKGSKLNELKKELKLLAKELEEQESESERKYDLFQNLELETEQLSSELDSNKTLLHNHLKSIESLKLENSDLEGKIRGVEDDLVTVQTELNEEKKRLMDIDDELNELETLIKKKQDEKKSSELELQKLVHDLNKYKSNTNNMEKIIEDLRQKHEFLEDFDLVRNIVKQNEGIDLDTYRERSKQLNEKFQELRKKVNPNIMNMIENVEKKEAALKTMIKTIEKDKMKIQETISKLNEYKRETLVKTWEKVTLDFGNIFADLLPNSFAKLVPCEGKDVTQGLEVKVKLGNIWKESLIELSGGQRSLIALSLIMALLQFRPAPMYILDEVDAALDLSHTQNIGHLIKTRFKGSQFIVVSLKEGMFANANRVFRTRFQDGTSVVSIM
notes: Smc2, SMC subunit of budding yeast (S. cerevisiae) condensin; only the head domain and proximal coiled coil (neck) are resolved in the maps; Subunit of the wild-type condensin tetramer and pentamer used for cryo-EM

How the values were obtained:
Settings in all cases: both partners purified
Smc4-3xStrepII [1] = target: T1, Smc4-3xStrepII; test: cryo-EM structure; condensin pentamer (Smc2, Smc4, Brn1, Ycs4, Ycg1) with 80-bp dsDNA, 5 mM ADP, 1 mM BeSO4, 10 mM NaF in TNT buffer pH 7.5; separate maps of the clamped head module and of Ycg1-DNA
Ycs4 = target: B1; test: as above
Smc4-3xStrepII [2] = target: T1, Smc4-3xStrepII; test: cryo-EM structure; condensin tetramer (Smc2, Smc4, Brn1, Ycs4) with 80-bp dsDNA, 5 mM ADP, 1 mM BeSO4, 10 mM NaF in TNT buffer (30 mM Tris/HCl, 60 mM NaCl, 1 mM TCEP, 2 mM MgCl2, pH 7.5), 30 min at room temperature; clamped head module, Forms I and II

binding result (Smc4-3xStrepII [1]) | binding result (Ycs4) | binding result (Smc4-3xStrepII [2]) | Binder
binds |  |  | B1
 | binds | binds | B2
